Laboratory results taken from paper PMC5570508.

Tests used:
Assay in all cases: fluorescence polarisation; titration: 5-FAM-labeled protein at 0.5 or 1 μM titrated with unlabeled protein; 20°C; analysis buffer (20 mM NaH2PO4, 50 mM NaCl, 1 mM DTT pH 7); single site binding model
[1] = biological target: PfEMP1 ATS of variant PFF0845c, fluorescently labeled (H159C) (P. falciparum)
[2] = biological target: KAHRP K2, fluorescently labeled (C414A/C450A) (P. falciparum)
[3] = biological target: PfEMP1 Acidic Terminal Segment (ATS) of variant PF08_0141, fluorescently labeled (Q150C) (P. falciparum)

Sequence of spectrin β chain domains 10–14 (P11277 1272-1804): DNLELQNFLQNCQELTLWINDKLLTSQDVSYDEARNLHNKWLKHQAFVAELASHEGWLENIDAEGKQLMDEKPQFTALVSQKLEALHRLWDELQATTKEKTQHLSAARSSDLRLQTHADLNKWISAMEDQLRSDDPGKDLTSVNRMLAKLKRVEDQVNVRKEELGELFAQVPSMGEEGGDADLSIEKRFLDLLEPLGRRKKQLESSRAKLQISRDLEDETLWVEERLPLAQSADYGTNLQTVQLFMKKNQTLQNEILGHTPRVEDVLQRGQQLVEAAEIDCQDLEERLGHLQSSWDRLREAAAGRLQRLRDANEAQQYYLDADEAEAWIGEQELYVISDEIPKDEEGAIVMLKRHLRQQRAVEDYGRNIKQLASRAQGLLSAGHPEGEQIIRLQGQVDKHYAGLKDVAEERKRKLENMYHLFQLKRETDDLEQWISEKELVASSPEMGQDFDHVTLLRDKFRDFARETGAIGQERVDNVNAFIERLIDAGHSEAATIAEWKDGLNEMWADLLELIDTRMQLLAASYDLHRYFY
Sequence of spectrin α chain domains 12–16 (P02549 1174-1716): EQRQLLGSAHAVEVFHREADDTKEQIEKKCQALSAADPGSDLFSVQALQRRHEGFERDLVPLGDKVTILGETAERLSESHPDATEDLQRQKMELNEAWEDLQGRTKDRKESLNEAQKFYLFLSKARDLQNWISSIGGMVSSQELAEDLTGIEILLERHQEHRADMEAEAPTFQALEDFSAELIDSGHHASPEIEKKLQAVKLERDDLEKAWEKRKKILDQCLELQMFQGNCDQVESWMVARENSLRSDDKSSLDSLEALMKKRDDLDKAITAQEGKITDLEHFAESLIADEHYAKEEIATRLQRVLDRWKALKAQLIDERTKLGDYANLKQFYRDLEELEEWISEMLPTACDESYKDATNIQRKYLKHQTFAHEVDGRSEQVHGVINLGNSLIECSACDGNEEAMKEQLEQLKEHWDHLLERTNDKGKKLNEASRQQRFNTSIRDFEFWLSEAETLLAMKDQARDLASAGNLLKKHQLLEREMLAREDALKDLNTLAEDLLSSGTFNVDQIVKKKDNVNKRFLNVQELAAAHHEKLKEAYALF
Sequence of α spectrin construct spanning domains 17 to the protein C-terminus (P02549 1704-2395): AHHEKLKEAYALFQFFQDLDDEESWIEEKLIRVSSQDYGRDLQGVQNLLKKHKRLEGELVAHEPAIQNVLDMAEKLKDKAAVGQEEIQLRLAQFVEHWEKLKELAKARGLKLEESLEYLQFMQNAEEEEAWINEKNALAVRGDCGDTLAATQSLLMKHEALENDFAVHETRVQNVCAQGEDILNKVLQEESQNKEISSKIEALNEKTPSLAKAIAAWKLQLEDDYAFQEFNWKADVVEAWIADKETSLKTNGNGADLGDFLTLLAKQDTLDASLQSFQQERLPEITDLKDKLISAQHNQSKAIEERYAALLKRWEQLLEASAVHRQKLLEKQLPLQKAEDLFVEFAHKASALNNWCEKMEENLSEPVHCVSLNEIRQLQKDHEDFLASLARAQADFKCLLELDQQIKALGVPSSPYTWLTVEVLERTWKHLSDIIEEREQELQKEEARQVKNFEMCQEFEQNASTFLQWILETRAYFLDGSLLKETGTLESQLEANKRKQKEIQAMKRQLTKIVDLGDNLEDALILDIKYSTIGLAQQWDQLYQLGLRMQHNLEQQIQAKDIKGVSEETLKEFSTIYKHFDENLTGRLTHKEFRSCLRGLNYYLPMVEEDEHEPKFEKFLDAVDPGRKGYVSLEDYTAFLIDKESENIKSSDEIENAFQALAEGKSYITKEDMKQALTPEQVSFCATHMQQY
Sequence of spectrin α chain domain 17 (P02549 1704-1828): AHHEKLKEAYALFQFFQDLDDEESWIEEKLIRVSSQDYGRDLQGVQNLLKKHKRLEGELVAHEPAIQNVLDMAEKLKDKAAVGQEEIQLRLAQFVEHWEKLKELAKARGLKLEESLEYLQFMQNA

| Substance | Kd [2] [µM] | other results |
| --- | --- | --- |
| spectrin α chain domain 17 (from UniProt P02549 1704-1828) (domain or fragment) |  | Kd [1]: 24 µM |
| spectrin α chain domains 12–16 (from UniProt P02549 1174-1716) (domain or fragment) | 160 |  |
| spectrin β chain domains 10–14 (from UniProt P11277 1272-1804) (domain or fragment) | 50 |  |
| α spectrin construct spanning domains 17 to the protein C-terminus (from UniProt P02549 1704-2395) (domain or fragment) |  | Kd [3]: 59 µM |
